T1: European Hornbeam (Car b 1 isoform 1A & 1B, MyBiosource, Cat #MBS1200018) (European Hornbeam, UniProt P38949 2-160)
T1 construct: Bought reagent
T1 sequence (looked up): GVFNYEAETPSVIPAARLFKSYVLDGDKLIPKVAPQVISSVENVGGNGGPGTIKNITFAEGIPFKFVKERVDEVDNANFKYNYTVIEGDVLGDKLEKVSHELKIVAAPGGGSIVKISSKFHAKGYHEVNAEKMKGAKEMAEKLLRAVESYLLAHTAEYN

T2: Apple (Mal d 1, MyBiosource, Cat #MBS1224919) (Apple, UniProt P43211 2-159, limits assumed)
T2 construct: Bought reagent
T2 sequence (looked up): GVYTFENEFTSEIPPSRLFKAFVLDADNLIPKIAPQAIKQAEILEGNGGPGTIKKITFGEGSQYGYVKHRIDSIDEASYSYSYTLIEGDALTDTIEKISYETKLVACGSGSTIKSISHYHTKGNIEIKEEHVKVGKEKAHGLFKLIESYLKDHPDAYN

T3: CHO produced recombinant Bet v 1 containing a S85A mutation with a C-terminal myc-myc hexahistidine tag … (Betula verrucosa (birch))
T3 chain: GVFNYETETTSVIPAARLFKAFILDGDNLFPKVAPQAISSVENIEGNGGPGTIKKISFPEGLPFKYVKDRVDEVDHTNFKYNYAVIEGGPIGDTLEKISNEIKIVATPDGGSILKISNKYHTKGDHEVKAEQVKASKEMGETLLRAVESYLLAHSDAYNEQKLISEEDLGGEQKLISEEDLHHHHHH

T4: European Hornbeam (Car b 1 isoform 2, MyBiosource, Cat #MBS1043940) (European Hornbeam, UniProt P38950 2-160, limits assumed)
T4 construct: Bought reagent
T4 sequence (looked up): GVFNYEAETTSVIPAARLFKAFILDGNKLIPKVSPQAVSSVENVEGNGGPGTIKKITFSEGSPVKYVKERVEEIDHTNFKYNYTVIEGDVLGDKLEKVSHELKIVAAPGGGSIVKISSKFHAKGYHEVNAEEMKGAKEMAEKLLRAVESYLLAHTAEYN

T5: Celery (Api g 1, MyBiosource, Cat #MBS1171376) (Celery, UniProt P49372 1-154, limits assumed)
T5 construct: Bought reagent
T5 sequence (looked up): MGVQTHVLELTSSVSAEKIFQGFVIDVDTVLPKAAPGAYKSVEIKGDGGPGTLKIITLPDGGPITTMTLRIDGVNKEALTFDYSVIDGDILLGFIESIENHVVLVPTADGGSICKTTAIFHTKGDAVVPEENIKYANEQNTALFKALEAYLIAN

T6: Alder (Aln g 1, MyBiosource, Cat #MBS1041484) (Alder, UniProt P38948 2-160, limits assumed)
T6 construct: Bought reagent
T6 sequence (looked up): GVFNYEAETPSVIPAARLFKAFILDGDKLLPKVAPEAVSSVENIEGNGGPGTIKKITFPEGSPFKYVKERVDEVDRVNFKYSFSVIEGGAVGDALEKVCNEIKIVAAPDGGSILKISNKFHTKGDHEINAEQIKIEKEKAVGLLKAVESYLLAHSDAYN


Key:
[1] = target: T1, European Hornbeam (Car b 1 isoform 1A & …); test: SPR, mAb captured via anti-hFc, 25 C
Method: (§1) Equilibrium dissociation constants (KD) for different related allergens binding to purified anti-Bet v 1 monoclonal antibodies were determined using a real-time surface plasmon resonance biosensor (SPR-Biacore) on a Biacore 4000 instrument. All binding studies were performed in 10 mM HEPES, 150 mM NaCl, 3 mM EDTA, and 0.05% v/v surfactant Tween-20, pH 7.4 (HBS-ET) running buffer at 25° C. […] Binding studies were performed on the following related allergens: Alder (Aln g 1, MyBiosource, Cat #MBS1041484), Apple (Mal d 1, MyBiosource, Cat #MBS1224919), Carrot (Dau c 1.2, MyBiosource, Cat #MBS1212920), Celery (Api g 1, MyBiosource, Cat #MBS1171376), Celery (Api g 2, MyBiosource, Cat #MBS1047880), European Hornbeam (Car b 1 isoform 1A & 1B, MyBiosource, Cat #MBS1200018), European Hornbeam (Car b 1 isoform 2, MyBiosource, Cat #MBS1043940), Hazel (Cor A 1, MyBiosource, Cat #MBS5304600), and White Oak (Que a 1, MyBiosource, Cat #MBS1258822). […] Association (kₐ) and dissociation (kd) rate constants were determined by fitting the real-time binding sensorgrams to a 1:1 binding model with mass transport limitation using Scrubber 2.0c curve-fitting software. Binding dissociation equilibrium constants (KD) and dissociative half-lives (t½) were calculated from the kinetic rate constants as:

[2] = target: T2, Apple (Mal d 1, MyBiosource, Cat …); test: SPR, mAb captured via anti-hFc, 25 C
Method: as §1

[3] = target: T3, CHO produced recombinant Bet v 1 …; test: SPR, mAb captured via anti-hFc, 37 C
Method: (§2) Equilibrium dissociation constants (KD) for natural Bet v 1 binding to purified anti-Bet v 1 monoclonal antibodies were determined using a real-time surface plasmon resonance biosensor (SPR-Biacore) on a Biacore 4000 instrument. All binding studies were performed in 10 mM HEPES, 150 mM NaCl, 3 mM EDTA, and 0.05% v/v surfactant Tween-20, pH 7.4 (HBS-ET) running buffer at 25° C. and 37° C. […] Association (kₐ) and dissociation (kd) rate constants were determined by fitting the real-time binding sensorgrams to a 1:1 binding model with mass transport limitation using Scrubber 2.0c curve-fitting software. Binding dissociation equilibrium constants (KD) and dissociative half-lives (t½) were calculated from the kinetic rate constants as:

[4] = target: T4, European Hornbeam (Car b 1 isoform 2, …); test: SPR, mAb captured via anti-hFc, 25 C
Method: as §1

[5] = target: T3, CHO produced recombinant Bet v 1 …; test: SPR, mAb captured via anti-hFc, 25 C
Method: as §2

[6] = target: T5, Celery (Api g 1, MyBiosource, Cat …); test: SPR, mAb captured via anti-hFc, 25 C
Method: as §1

[7] = target: T6, Alder (Aln g 1, MyBiosource, Cat …); test: SPR, mAb captured via anti-hFc, 25 C
Method: as §1

Row | 100 nM Analyte Bound (RU) [1] [RU] | 100 nM Analyte Bound (RU) [2] [RU] | binding result [2] | 100 nM natural Bet v 1-MHH Bound (RU) [3] [RU] | Kd [3] [nM] | koff [3] [s⁻¹] | kon [3] [M⁻¹ s⁻¹] | t½ [3] [min] | 100 nM Analyte Bound (RU) [4] [RU] | binding result [4] | 100 nM natural Bet v 1- MMH Bound (RU) [5] [RU] | Kd [5] [nM] | koff [5] [s⁻¹] | kon [5] [M⁻¹ s⁻¹] | t½ [5] [min] | 100 nM Analyte Bound (RU) [6] [RU] | binding result [6] | 100 nM Analyte Bound (RU) [7] [RU] | Kd [4] [nM] | binding result [7] | Binder | also measured
1 | 4 | 1 | no binding (tested: 100 nM) | 72 | 2.01 | 0.00177 | 879000 | 6.5 | 1 | no binding (tested: 100 nM) | 64 | 0.789 | 0.000443 | 562000 | 26 | 0 | no binding (tested: 100 nM) | 29 | – | – | H4H16960P (antibody, human IgG4, V domains shown, Fully human antibody with human IgG4 Fc (H4H prefix)) VH: QLQLQESGPGLVRPSETLSLTCTVSGGSISSSNYWWGWIRQPPGKGLEWIGSIYYSGITYYNPSLKSRVTISADTSKDQFSLKLRSVTAADTAVYYCAKLEWLRLDFWGQGTTVTVSS VL: DIQMTQSPSSVSASVGDRVTITCRASQGISSWLVWYQQKPGKVPKLLIYAASSLQSGVPLRFSGSGSGTDFTLTISSLQPEDFATYYCQQAKSFPLTFGQGTRLEIK | binding result [1]: no binding (tested: 100 nM); Kd [7]: 147 nM; koff [7]: 0.0332 s⁻¹; kon [7]: 226000 M⁻¹ s⁻¹; t½ [7]: 0.3 min
2 | 63 | 0 | no binding (tested: 100 nM) | 97 | 0.655 | 0.000395 | 603000 | 29 | 63 | – | 83 | 0.348 | 0.000141 | 405000 | 82 | 1 | no binding (tested: 100 nM) | 2 | 179 | no binding (tested: 100 nM) | H4H16946P (antibody, human IgG4, V domains shown, Fully human antibody with human IgG4 Fc (H4H prefix)) VH: EVQLVESGGGLVQPGGSLRLSCVASGFTFSNYDMNWVRQAPGEGLEWISYISYSDHNIYYIDSVKGRFTISRDNAKNSLYLQMNSLRAEDTAIYYCAREALASSSFDYWGQGTLVTVSS VL: EIVMTQSPATLSVSPGERVTLSCRASQSVSGNLAWYQQKPGQAPRLLIYSASTGATGVPARFSGSGSGTEFTLTISSLQSEDFALYYCQQYNKWPRTIGQGTKVEIK | Kd [1]: 168 nM; koff [1]: 0.024 s⁻¹; kon [1]: 143000 M⁻¹ s⁻¹; t½ [1]: 0.5 min; koff [4]: 0.0138 s⁻¹; kon [4]: 76900 M⁻¹ s⁻¹; t½ [4]: 0.8 min
3 | 1 | 25 | – | 60 | 18.6 | 0.012 | 648000 | 1 | 23 | – | 58 | 9.48 | 0.00386 | 407000 | 3 | 0 | no binding (tested: 100 nM) | 41 | 564 | – | H4H16971P (antibody, human IgG4, V domains shown, Fully human antibody with human IgG4 Fc (H4H prefix)) VH: QVQLVESGGGVVQPGRSLRLSCAASGFTFSSYGLHWVRQAPGKGLEWVAVISDDGSYKFYADSMKGRFTISRDNSKNTLYLQMNSLRAEDTAVYYCAKDRGRSGWYYFDYWGQGTLVTVSS VL: not shown | binding result [1]: no binding (tested: 100 nM); Kd [2]: 494 nM; koff [2]: 0.0795 s⁻¹; kon [2]: 161000 M⁻¹ s⁻¹; t½ [2]: 0.2 min; koff [4]: 0.146 s⁻¹; kon [4]: 259000 M⁻¹ s⁻¹; t½ [4]: 0 min; Kd [7]: 126 nM; koff [7]: 0.0118 s⁻¹; kon [7]: 93000 M⁻¹ s⁻¹; t½ [7]: 1 min
4 | -1 | -2 | – | -1 | – | – | – | – | 0 | no binding (tested: 100 nM) | 0 | – | – | – | – | -1 | – | 0 | – | no binding (tested: 100 nM) | H4H16967P (antibody, human IgG4, V domains shown, Fully human antibody with human IgG4 Fc (H4H prefix)) VH: QVQLVESGGGVVQPGRSLRLSCAASGFTFSSYGMHWFRQAPGKGLEWVGVIWSDGSDKKYADSVKGRFTISRDNSKNTLYLLMNSLRDDDTAVYHCAREGGFLYSSSSHFDYWGQGTLVTVSS VL: AIQMTQSPSSLSASVGDRVTITCRTSQGIRNDLGWYQQKPGKAPKLLIFAASSLQSGVPSRFSGSGSGTDFTLTISSLQPEDFAIYYCLQDYKYPFTFGGGTKVEIK | –
5 | 26 | -1 | – | 0 | – | – | – | – | 183 | – | 0 | – | – | – | – | 0 | no binding (tested: 100 nM) | 1 | 0.335 | no binding (tested: 100 nM) | H4H16943P (antibody, human IgG4, V domains shown, Fully human antibody with human IgG4 Fc (H4H prefix)) VH: EVQLVESGGGLVQPGGSLRLSCTASGFMSSMYWMSWVRQAPGKGLEWVSNIKQDGTEKNYVESVKGRFTISRDNAKNSLYLQINSLRGEDTAVYYCARDLYSSSSGYYYYGLDVWGQGTTVTVSS VL: DIVMTQSPLSLPVTPGEPASISCRSSQSLLHSNKYNYLDWYLQKPGQSPQLLIYLSSNRASGVPDRFSGSGSGTEFTLKISRVEAEDVGIYYCMQALHTPLTFGGGTKVEIK | Kd [1]: 380 nM; koff [1]: 0.0578 s⁻¹; kon [1]: 152000 M⁻¹ s⁻¹; t½ [1]: 0.2 min; koff [4]: 0.000371 s⁻¹; kon [4]: 1.11e+06 M⁻¹ s⁻¹; t½ [4]: 31 min; binding result [5]: no binding (tested: 100 nM)
6 | -1 | -1 | – | 83 | 5.81 | 0.00125 | 215000 | 9.2 | 0 | no binding (tested: 100 nM) | 70 | 2.21 | 0.000335 | 151000 | 35 | 0 | no binding (tested: 100 nM) | 15 | – | – | H4H16950P (antibody, human IgG4, V domains shown, Fully human antibody with human IgG4 Fc (H4H prefix)) VH: QVQLVQSGAEVKKPGASVKVSCKTSGYTFTNYGITWVRQAPGQGLEWMGWISAYNGNTNYAQNVQGRVTMTTDTSTSTAYMEVRSLRSDDTAVYYCARRSSMLHFQHWGQGTLVTVSS VL: DIVMTQSPDSLAVSLGERATINCKSSQHVLYDSSNENYLAWFQQKPGQPPKLLIYWASTRESGVPDRFSGSGSGTDFTLTISSLQAEDVAVYYCQQYSSAPYTFGQGTKLEIK | Kd [7]: 175 nM; koff [7]: 0.016 s⁻¹; kon [7]: 91200 M⁻¹ s⁻¹; t½ [7]: 0.7 min
7 | 161 | 3 | no binding (tested: 100 nM) | – | – | – | – | – | – | – | – | – | – | – | – | 1 | no binding (tested: 100 nM) | 5 | 0.617 | no binding (tested: 100 nM) | H4H16992P (antibody, human IgG4 S228P, kappa, V domains shown, human IgG4 Fc; also called REGN5713; MAB1) VH: QVQLQESGPGLVKPSETLSLTCSVSGGSITNYFWTWIRQSPGKGLEWIGYIYYSGGTNYNPSLKSRVTISIDTSKNQFSLNMNSVTAADTAVYYCAGSYYYGVDVWGQGTTVTVSS VL: EIVLTQSPATLSLSPGERATLSCRASQSIKSFLAWYRQKPGQAPRLLIYDASNRPTGIPARFSGSGSGTDFTLTINSLESEDFAVYFCQQRNNWPFTFGPGTKVDIKR | Kd [1]: 1.2 nM; t½ [1]: 34 min

— US20240083986A1 (published 2024)
